Experimental data as given in US20160115500A1 (University of California, published 2016).
Changes are numbered by the printed parent chain. Names may count otherwise.

T1: GAL4 activation domain fusion (ACT) to HAB1 (UniProt Q9CAJ0 23-511, limits assumed)
T1 construct: pACT-HAB1 fusion in yeast reporter strains; also called pACT-HAB1
T1 sequence (looked up): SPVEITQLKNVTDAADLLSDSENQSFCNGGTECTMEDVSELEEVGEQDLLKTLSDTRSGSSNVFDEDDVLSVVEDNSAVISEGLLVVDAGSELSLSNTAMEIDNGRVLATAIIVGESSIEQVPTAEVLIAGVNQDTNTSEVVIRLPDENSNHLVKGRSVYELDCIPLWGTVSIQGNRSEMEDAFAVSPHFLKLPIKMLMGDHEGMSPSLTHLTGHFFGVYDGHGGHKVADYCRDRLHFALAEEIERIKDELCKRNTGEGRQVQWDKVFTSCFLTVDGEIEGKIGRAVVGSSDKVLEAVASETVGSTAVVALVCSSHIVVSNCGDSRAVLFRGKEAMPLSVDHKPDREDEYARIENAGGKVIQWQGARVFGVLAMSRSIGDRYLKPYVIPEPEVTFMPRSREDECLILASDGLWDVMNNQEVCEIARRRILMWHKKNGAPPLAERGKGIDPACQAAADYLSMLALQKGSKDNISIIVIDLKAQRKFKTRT

B1: PYR1^K59R,N167T (receptor, not shown: small tags and cut ends)
chain: MPSELTPEERSELKNSIAEFHTYQLDPGSCSSLHAQRIHAPPELVWSIVRRFDKPQTYRHFIKSCSVEQNFEMRVGCTRDVIVISGLPANTSTERLDILDDERRVTGFSIIGGEHRLTNYKSVTTVHRFEKENRIWTVVLESYVVDMPEGNSEDDTRMFADTVVKLTLQKLATVAEAMARNSGDGSGSQVT
notes: pBD-PYR1 fusion in yeast
B2: PYR1^K59R,I110M (receptor, not shown: small tags and cut ends)
chain: B1 chain with I110M, T167N
notes: pBD-PYR1 fusion in yeast
B3: PYR1^K59R,N167D (receptor, not shown: small tags and cut ends)
chain: B1 chain with T167D
notes: pBD-PYR1 fusion in yeast
B4: PYR1^K59R,V164A (receptor, not shown: small tags and cut ends)
chain: B1 chain with V164A, T167N
notes: pBD-PYR1 fusion in yeast
B5: PYR1^K59R,V164F (receptor, not shown: small tags and cut ends)
chain: B1 chain with V164F, T167N
notes: pBD-PYR1 fusion in yeast
B6: PYR1^K59R,N167Q (receptor, not shown: small tags and cut ends)
chain: B1 chain with T167Q
notes: pBD-PYR1 fusion in yeast
B7: PYR1^K59R,V164H (receptor, not shown: small tags and cut ends)
chain: B1 chain with V164H, T167N
notes: pBD-PYR1 fusion in yeast
B8: PYR1^K59R,M158S (receptor, not shown: small tags and cut ends)
chain: B1 chain with M158S, T167N
notes: pBD-PYR1 fusion in yeast
B9: PYR1^K59R,A160V (receptor, not shown: small tags and cut ends)
chain: B1 chain with A160V, T167N
notes: pBD-PYR1 fusion in yeast
B10: PYR1^K59R,A160N (receptor, not shown: small tags and cut ends)
chain: B1 chain with A160N, T167N
notes: pBD-PYR1 fusion in yeast
B11: PYR1^K59R,V164L (receptor, not shown: small tags and cut ends)
chain: B1 chain with V164L, T167N
notes: pBD-PYR1 fusion in yeast
B12: PYR1^K59R,V164Q (receptor, not shown: small tags and cut ends)
chain: B1 chain with V164Q, T167N
notes: pBD-PYR1 fusion in yeast
B13: PYR1^K59R,E141F (receptor)
chain: B1 chain with E141F, T167N
notes: pBD-PYR1 fusion in yeast
B14: PYR1^K59R,M158L (receptor, not shown: small tags and cut ends)
chain: B1 chain with M158L, T167N
notes: pBD-PYR1 fusion in yeast
B15: PYR1^K59R,V164S (receptor, not shown: small tags and cut ends)
chain: B1 chain with V164S, T167N
notes: pBD-PYR1 fusion in yeast
B16: PYR1^K59R,T162L (receptor, not shown: small tags and cut ends)
chain: B1 chain with T162L, T167N
notes: pBD-PYR1 fusion in yeast
B17: PYR1^K59R,V164N (receptor, not shown: small tags and cut ends)
chain: B1 chain with V164N, T167N
notes: pBD-PYR1 fusion in yeast
B18: PYR1^K59R,N167G (receptor, not shown: small tags and cut ends)
chain: B1 chain with T167G
notes: pBD-PYR1 fusion in yeast
B19: PYR1^K59R,N167A (receptor, not shown: small tags and cut ends)
chain: B1 chain with T167A
notes: pBD-PYR1 fusion in yeast
B20: PYR1^K59R,M158A (receptor, not shown: small tags and cut ends)
chain: B1 chain with M158A, T167N
notes: pBD-PYR1 fusion in yeast
B21: PYR1^K59R,A160S (receptor, not shown: small tags and cut ends)
chain: B1 chain with A160S, T167N
notes: pBD-PYR1 fusion in yeast
B22: PYR1^K59R,N167S (receptor, not shown: small tags and cut ends)
chain: B1 chain with T167S
notes: pBD-PYR1 fusion in yeast
B23: PYR1^K59R,E141L (receptor, not shown: small tags and cut ends)
chain: B1 chain with E141L, T167N
notes: pBD-PYR1 fusion in yeast
B24: PYR1^K59R,E141H (receptor, not shown: small tags and cut ends)
chain: B1 chain with E141H, T167N
notes: pBD-PYR1 fusion in yeast
B25: PYR1^K59R,A160I (receptor, not shown: small tags and cut ends)
chain: B1 chain with A160I, T167N
notes: pBD-PYR1 fusion in yeast
B26: PYR1^K59R,V164C (receptor, not shown: small tags and cut ends)
chain: B1 chain with V164C, T167N
notes: pBD-PYR1 fusion in yeast
B27: PYR1^K59R,V164G (receptor, not shown: small tags and cut ends)
chain: B1 chain with V164G, T167N
notes: pBD-PYR1 fusion in yeast
B28: PYR1^K59R,E141Q (receptor, not shown: small tags and cut ends)
chain: B1 chain with E141Q, T167N
notes: pBD-PYR1 fusion in yeast
B29: PYR1^K59R,V164M (receptor, not shown: small tags and cut ends)
chain: B1 chain with V164M, T167N
notes: pBD-PYR1 fusion in yeast
B30: PYR1^K59R,V164T (receptor, not shown: small tags and cut ends)
chain: B1 chain with V164T, T167N
notes: pBD-PYR1 fusion in yeast
B31: PYR1^K59R,A160T (receptor, not shown: small tags and cut ends)
chain: B1 chain with A160T, T167N
notes: pBD-PYR1 fusion in yeast
B32: PYR1^K59R,A160Y (receptor, not shown: small tags and cut ends)
chain: B1 chain with A160Y, T167N
notes: pBD-PYR1 fusion in yeast
B33: PYR1^K59R,V164E (receptor, not shown: small tags and cut ends)
chain: B1 chain with V164E, T167N
notes: pBD-PYR1 fusion in yeast
B34: PYR1^K59R,M158G (receptor, not shown: small tags and cut ends)
chain: B1 chain with M158G, T167N
notes: pBD-PYR1 fusion in yeast
B35: PYR1^K59R,H115N (receptor)
chain: B1 chain with H115N, T167N
notes: pBD-PYR1 fusion in yeast
B36: PYR1^K59R,F108A (receptor, not shown: small tags and cut ends)
chain: B1 chain with F108A, T167N
notes: pBD-PYR1 fusion in yeast
B37: PYR1^K59R,F108A,S122G,F159V (receptor)
chain: B1 chain with F108A, S122G, F159V, T167N
notes: pBD-PYR1 fusion in yeast
B38: PYR1^K59R,F108Q (receptor, not shown: small tags and cut ends)
chain: B1 chain with F108Q, T167N
notes: pBD-PYR1 fusion in yeast
B39: PYR1^K59R,F108A,S122G,F159L (receptor)
chain: B1 chain with F108A, S122G, F159L, T167N
notes: pBD-PYR1 fusion in yeast
B40: PYR1^K59R,F108A,S122G (receptor, not shown: small tags and cut ends)
chain: B1 chain with F108A, S122G, T167N
notes: pBD-PYR1 fusion in yeast; also called pBD-PYR1^K59R,F108A,S122G
B41: PYR1^K59R,F108G (receptor, not shown: small tags and cut ends)
chain: B1 chain with F108G, T167N
notes: pBD-PYR1 fusion in yeast
B42: PYR1^K59R,F108A,S122G,L87A (receptor)
chain: B1 chain with L87A, F108A, S122G, T167N
notes: pBD-PYR1 fusion in yeast
B43: PYR1^K59R,F108N (receptor, not shown: small tags and cut ends)
chain: B1 chain with F108N, T167N
notes: pBD-PYR1 fusion in yeast
B44: PYR1^K59R,F108A,S122G,A160V (receptor)
chain: B1 chain with F108A, S122G, A160V, T167N
notes: pBD-PYR1 fusion in yeast
B45: PYR1^K59R,F108Q,S122G (receptor, not shown: small tags and cut ends)
chain: B1 chain with F108Q, S122G, T167N
notes: pBD-PYR1 fusion in yeast
B46: PYR1^K59R,F108A,S122G,V81C (receptor, not shown: small tags and cut ends)
chain: B1 chain with V81C, F108A, S122G, T167N
notes: pBD-PYR1 fusion in yeast
B47: PYR1^K59R,F108T (receptor, not shown: small tags and cut ends)
chain: B1 chain with F108T, T167N
notes: pBD-PYR1 fusion in yeast
B48: PYR1^K59R,F108C (receptor, not shown: small tags and cut ends)
chain: B1 chain with F108C, T167N
notes: pBD-PYR1 fusion in yeast
B49: PYR1^K59R,F108A,S122G,V81I (receptor, not shown: small tags and cut ends)
chain: B1 chain with V81I, F108A, S122G, T167N
notes: pBD-PYR1 fusion in yeast
B50: PYR1^K59R,F108A,S122G,V81T (receptor, not shown: small tags and cut ends)
chain: B1 chain with V81T, F108A, S122G, T167N
notes: pBD-PYR1 fusion in yeast
B51: PYR1^K59R,F108A,S122G,F159M (receptor)
chain: B1 chain with F108A, S122G, F159M, T167N
notes: pBD-PYR1 fusion in yeast
B52: PYR1^K59R,F108A,S122G,V83L (receptor)
chain: B1 chain with V83L, F108A, S122G, T167N
notes: pBD-PYR1 fusion in yeast
B53: PYR1^K59R,F108I (receptor, not shown: small tags and cut ends)
chain: B1 chain with F108I, T167N
notes: pBD-PYR1 fusion in yeast
B54: PYR1^K59R,F108I,S122G (receptor, not shown: small tags and cut ends)
chain: B1 chain with F108I, S122G, T167N
notes: pBD-PYR1 fusion in yeast
B55: PYR1^K59R,F108S (receptor)
chain: B1 chain with F108S, T167N
notes: pBD-PYR1 fusion in yeast
B56: PYR1^K59R,F108A,S122G,V164I (receptor)
chain: B1 chain with F108A, S122G, V164I, T167N
notes: pBD-PYR1 fusion in yeast

Target: T1, GAL4 activation domain fusion (ACT) to …
Experiment: yeast two-hybrid, X-gal; lowest dichlobenil concentration giving signal

Threshold [µM] | Binder
100 | B1
100 | B2
100 | B3
100 | B4
100 | B5
100 | B6
100 | B7
100 | B8
100 | B9
100 | B10
100 | B11
100 | B12
100 | B13
100 | B14
100 | B15
100 | B16
100 | B17
100 | B18

Threshold [µM] | Binder
100 | B19
100 | B20
100 | B21
100 | B22
100 | B23
100 | B24
100 | B25
100 | B26
100 | B27
100 | B28
100 | B29
100 | B30
100 | B31
100 | B32
100 | B33
100 | B34
100 | B35

Target: T1, GAL4 activation domain fusion (ACT) to …
Experiment: yeast two-hybrid, X-gal; lowest mandipropamid concentration giving signal

Threshold [µM] | Binder
100 | B36
0.25 | B37
100 | B38
0.05 | B39
1 | B40
100 | B41
0.25 | B42
100 | B43
0.25 | B44
10 | B45
0.25 | B46
100 | B47
100 | B48
0.25 | B49
0.25 | B50
0.25 | B51
0.05 | B52
100 | B53
10 | B54
100 | B55
0.25 | B56
